One molecule from PMC3273827 can be followed below.

The data set concerns the target T1, La(4-325) (Homo sapiens, UniProt P05455 4-325).
T1 sequence: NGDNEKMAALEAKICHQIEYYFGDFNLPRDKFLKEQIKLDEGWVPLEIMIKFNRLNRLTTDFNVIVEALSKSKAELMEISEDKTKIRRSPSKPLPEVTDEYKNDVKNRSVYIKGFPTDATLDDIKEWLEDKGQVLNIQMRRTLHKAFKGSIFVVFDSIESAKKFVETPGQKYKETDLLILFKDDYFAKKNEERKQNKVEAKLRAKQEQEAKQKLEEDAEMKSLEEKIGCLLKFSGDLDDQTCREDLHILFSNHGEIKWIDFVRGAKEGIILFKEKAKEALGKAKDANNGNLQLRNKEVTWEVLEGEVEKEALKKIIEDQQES
Nature of the data set: ITC. For orientation: In ITC the heat of successive injections is recorded.

B1: 27-mer ssRNA (ssRNA)
RNA: ACCUAACCACCACUACCACCUCCCACA
With B1, the binding result was “no binding”.
